Experiments:
[1] = target: Dec (phage decoration protein) with a hexa-histidine tag at the C-terminus; test: cryo-EM structure
[2] = target: Dec (phage decoration protein), tagged form not told for the experiment; test: cryo-EM structure

Sequence of Dec (phage decoration protein), tagged form not told for the experiment (Q8HAE6 whole entry): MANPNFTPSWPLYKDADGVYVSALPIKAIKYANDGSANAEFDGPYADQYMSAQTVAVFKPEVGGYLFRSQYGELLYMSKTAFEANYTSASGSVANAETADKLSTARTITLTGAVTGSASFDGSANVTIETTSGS
Sequence of Dec (phage decoration protein) with a hexa-histidine tag at the C-terminus (Q8HAE6 whole entry): as above

Substance	stoichiometry N [1]	stoichiometry N [2]
Dec (phage decoration protein) with a hexa-histidine tag at the C-terminus (natural protein)	3	–
Dec (phage decoration protein), tagged form not told for the experiment (natural protein)	–	3
